Results on nine molecules are retold here after article PMC6351565, “Mechanism of IRSp53 inhibition by 14-3-3” (Nature Communications, 2019).

Holding throughout (conditions): both partners purified
The target of assay [1] is T1, 14-3-3θ (human, UniProt P27348 1-245).
T1 construct: 14-3-3θ, human, UniProt P27348; also called 14-3-3 theta; 14-3-3τ
T1 sequence: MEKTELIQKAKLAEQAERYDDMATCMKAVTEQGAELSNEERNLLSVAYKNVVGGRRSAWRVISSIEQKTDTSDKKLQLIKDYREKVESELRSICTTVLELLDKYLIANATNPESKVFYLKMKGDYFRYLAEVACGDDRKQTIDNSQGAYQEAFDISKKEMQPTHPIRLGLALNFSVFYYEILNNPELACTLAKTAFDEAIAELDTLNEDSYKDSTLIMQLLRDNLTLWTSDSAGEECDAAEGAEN
The assay can be described thus: ITC; peptide in the syringe (100 μM singly, 50 μM doubly phosphorylated) titrated into 10 μM 14-3-3θ in the cell; 20 °C; 20 mM HEPES pH 7.5, 150 mM NaCl, 1 mM MgCl2, 0.1 mM TCEP; single-site model.

The target of assay [2] is T1, 14-3-3θ. Kind of assay: SEC-MALS; 14-3-3θ (4 mg/mL) pre-incubated 2 h at 20 °C with Site 2 (two peptides per dimer) or Sites 2,4 (one peptide per dimer); TSKgel SuperSW2000. (In general: Size exclusion chromatography separates by hydrodynamic size, large species first.)
Assay [3] concerns the target T2, IRSp53-FLAG (wild type), natively phosphorylated (human (from the printed UniProt entry), UniProt Q9UQB8-4 1-521, phosphorylated in HEK293T cells at S325, T340, T360, S366 and a residue within 452SSST455, most likely S454 (mass spectrometry of the purified 14-3-3-binding-competent fraction)).
T2 construct: also called pIRSp53; WT IRSp53-FLAG; source: HEK293T, transfected, in lysate; not shown: FLAG, C-terminal, kept
T2 sequence (looked up): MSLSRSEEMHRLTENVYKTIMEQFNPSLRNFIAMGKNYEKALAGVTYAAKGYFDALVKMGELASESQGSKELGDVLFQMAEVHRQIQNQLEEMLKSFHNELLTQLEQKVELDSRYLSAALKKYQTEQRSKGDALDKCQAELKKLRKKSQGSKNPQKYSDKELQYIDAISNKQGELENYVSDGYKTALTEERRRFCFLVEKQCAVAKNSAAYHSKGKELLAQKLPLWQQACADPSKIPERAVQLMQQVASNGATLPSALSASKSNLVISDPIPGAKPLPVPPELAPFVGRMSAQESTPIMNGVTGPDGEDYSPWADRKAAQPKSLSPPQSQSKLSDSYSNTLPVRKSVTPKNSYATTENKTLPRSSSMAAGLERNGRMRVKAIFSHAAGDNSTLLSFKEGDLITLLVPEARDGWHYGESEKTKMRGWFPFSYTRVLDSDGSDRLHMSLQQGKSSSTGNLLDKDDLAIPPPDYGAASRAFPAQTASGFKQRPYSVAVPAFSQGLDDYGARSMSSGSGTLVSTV
The assay can be described thus: pull-down; 14-3-3θ-affinity column: MBP-14-3-3θ bound to amylose resin; FLAG-eluted IRSp53-FLAG loaded; eluted with 200 μM Sites 2,3 peptide.

For the next assay, the target named is T3, 2xFLAG-Eps8 (human, UniProt Q12929 1-822).
T3 construct: Eps8, human, UniProt Q12929, full length; also called FLAG-tagged Eps8
T3 sequence (Q12929 whole entry): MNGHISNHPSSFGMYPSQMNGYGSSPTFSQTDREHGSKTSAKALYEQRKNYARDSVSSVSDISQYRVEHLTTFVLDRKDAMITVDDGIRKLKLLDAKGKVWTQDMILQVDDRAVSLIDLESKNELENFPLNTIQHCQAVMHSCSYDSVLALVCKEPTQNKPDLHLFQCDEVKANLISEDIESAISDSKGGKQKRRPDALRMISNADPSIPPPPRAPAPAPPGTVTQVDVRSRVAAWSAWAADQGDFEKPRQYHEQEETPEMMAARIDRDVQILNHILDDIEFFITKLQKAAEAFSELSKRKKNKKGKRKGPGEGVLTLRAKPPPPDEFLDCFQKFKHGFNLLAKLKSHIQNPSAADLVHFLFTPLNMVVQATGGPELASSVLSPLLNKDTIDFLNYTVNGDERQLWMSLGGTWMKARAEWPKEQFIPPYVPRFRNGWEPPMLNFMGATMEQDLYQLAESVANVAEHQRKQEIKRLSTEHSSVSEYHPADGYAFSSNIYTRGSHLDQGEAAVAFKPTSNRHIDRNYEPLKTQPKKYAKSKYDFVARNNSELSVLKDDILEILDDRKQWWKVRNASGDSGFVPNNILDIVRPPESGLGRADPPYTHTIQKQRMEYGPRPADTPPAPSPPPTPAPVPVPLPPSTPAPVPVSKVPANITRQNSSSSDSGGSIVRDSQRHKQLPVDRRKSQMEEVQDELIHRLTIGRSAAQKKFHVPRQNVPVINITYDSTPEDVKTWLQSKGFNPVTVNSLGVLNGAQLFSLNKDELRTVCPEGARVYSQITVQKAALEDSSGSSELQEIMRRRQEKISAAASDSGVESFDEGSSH
Kind of assay: other fluorescence titration; intramolecular FRET sensor (fluorescein/rhodamine on C230 and C519 of IRSp53); Cdc42, Eps8 and/or 14-3-3θ titrated into the sensor, also back to back; 20 °C; 25 mM Tris-HCl pH 7.5, 150 mM NaCl, 1 mM MgCl2, 5% glycerol, 0.1 mM TCEP; observed Kd (Kobs) from the fits.

Where no end group is shown, it is not given here. [ ]: non-standard residue; d: D form. pT = C[C@@H](OP(=O)(O)O)[C@H](N)C(=O)O; pS = N[C@@H](COP(=O)(O)O)C(=O)O

B1: Site 4 peptide (pS366) (peptide)
chain: Ac-TLPRSS[pS]MAAGLEK-NH2
SMILES: CSCC[C@H](NC(=O)[C@H](COP(=O)(O)O)NC(=O)[C@H](CO)NC(=O)[C@H](CO)NC(=O)[C@H](CCCNC(=N)N)NC(=O)[C@@H]1CCCN1C(=O)[C@H](CC(C)C)NC(=O)[C@@H](NC(C)=O)[C@@H](C)O)C(=O)N[C@@H](C)C(=O)N[C@@H](C)C(=O)NCC(=O)N[C@@H](CC(C)C)C(=O)N[C@@H](CCC(=O)O)C(=O)N[C@@H](CCCCN)C(N)=O
With B1, in the assay with 14-3-3θ [1], the “stoichiometry N” value was ~1 peptide per 14-3-3θ subunit (two peptides per 14-3-3θ dimer).

B2: Site 2 peptide (pT340) (peptide)
chain: Ac-LSDSYSN[pT]LPVRKS-NH2
SMILES: CC(=O)N[C@@H](CC(C)C)C(=O)N[C@@H](CO)C(=O)N[C@@H](CC(=O)O)C(=O)N[C@@H](CO)C(=O)N[C@@H](Cc1ccc(O)cc1)C(=O)N[C@@H](CO)C(=O)N[C@@H](CC(N)=O)C(=O)N[C@H](C(=O)N[C@@H](CC(C)C)C(=O)N1CCC[C@H]1C(=O)N[C@H](C(=O)N[C@@H](CCCNC(=N)N)C(=O)N[C@@H](CCCCN)C(=O)N[C@@H](CO)C(N)=O)C(C)C)[C@@H](C)OP(=O)(O)O
Consider B2, for which the “stoichiometry N” value in the assay with 14-3-3θ [1] is ~1 peptide per 14-3-3θ subunit (two peptides per 14-3-3θ dimer); with 14-3-3θ [2] it was 1 peptide per 14-3-3θ subunit.

B3: Site 3 peptide (pT360) (peptide)
chain: Ac-ATTENK[pT]LPRSSS-NH2
SMILES: CC(=O)N[C@@H](C)C(=O)N[C@H](C(=O)N[C@H](C(=O)N[C@@H](CCC(=O)O)C(=O)N[C@@H](CC(N)=O)C(=O)N[C@@H](CCCCN)C(=O)N[C@H](C(=O)N[C@@H](CC(C)C)C(=O)N1CCC[C@H]1C(=O)N[C@@H](CCCNC(=N)N)C(=O)N[C@@H](CO)C(=O)N[C@@H](CO)C(=O)N[C@@H](CO)C(N)=O)[C@@H](C)OP(=O)(O)O)[C@@H](C)O)[C@@H](C)O
For B3, the “stoichiometry N” value in the assay with 14-3-3θ [1] is ~1 peptide per 14-3-3θ subunit (two peptides per 14-3-3θ dimer).

B4: Sites 2,4 peptide (pT340/pS366) (peptide)
peptide: Ac-DSYSN[pT]LPVRKSVTPKNSYATTENKTLPRSS[pS]MAAGLE-NH2
SMILES: CSCC[C@H](NC(=O)[C@H](COP(=O)(O)O)NC(=O)[C@H](CO)NC(=O)[C@H](CO)NC(=O)[C@H](CCCNC(=N)N)NC(=O)[C@@H]1CCCN1C(=O)[C@H](CC(C)C)NC(=O)[C@@H](NC(=O)[C@H](CCCCN)NC(=O)[C@H](CC(N)=O)NC(=O)[C@H](CCC(=O)O)NC(=O)[C@@H](NC(=O)[C@@H](NC(=O)[C@H](C)NC(=O)[C@H](Cc1ccc(O)cc1)NC(=O)[C@H](CO)NC(=O)[C@H](CC(N)=O)NC(=O)[C@H](CCCCN)NC(=O)[C@@H]1CCCN1C(=O)[C@@H](NC(=O)[C@@H](NC(=O)[C@H](CO)NC(=O)[C@H](CCCCN)NC(=O)[C@H](CCCNC(=N)N)NC(=O)[C@@H](NC(=O)[C@@H]1CCCN1C(=O)[C@H](CC(C)C)NC(=O)[C@@H](NC(=O)[C@H](CC(N)=O)NC(=O)[C@H](CO)NC(=O)[C@H](Cc1ccc(O)cc1)NC(=O)[C@H](CO)NC(=O)[C@H](CC(=O)O)NC(C)=O)[C@@H](C)OP(=O)(O)O)C(C)C)C(C)C)[C@@H](C)O)[C@@H](C)O)[C@@H](C)O)[C@@H](C)O)C(=O)N[C@@H](C)C(=O)N[C@@H](C)C(=O)NCC(=O)N[C@@H](CC(C)C)C(=O)N[C@@H](CCC(=O)O)C(N)=O
notes: IRSp53 stretch of 29-40 residues that holds T340 and S366; source: synthetic peptide (Dr. Paul Leavis, Tufts University)
In the case of B4, in the assay with 14-3-3θ [1], the affinity, expressed as Kd, was 67 nM and the “stoichiometry N” value is ~0.5 peptide per 14-3-3θ subunit (one peptide per 14-3-3θ dimer). The “stoichiometry N” value in the assay with 14-3-3θ [2] was 0.5 peptide per 14-3-3θ subunit.

B5: MBP-14-3-3θ (natural protein, human, UniProt P27348 1-245, looked up)
chain: MEKTELIQKAKLAEQAERYDDMATCMKAVTEQGAELSNEERNLLSVAYKNVVGGRRSAWRVISSIEQKTDTSDKKLQLIKDYREKVESELRSICTTVLELLDKYLIANATNPESKVFYLKMKGDYFRYLAEVACGDDRKQTIDNSQGAYQEAFDISKKEMQPTHPIRLGLALNFSVFYYEILNNPELACTLAKTAFDEAIAELDTLNEDSYKDSTLIMQLLRDNLTLWTSDSAGEECDAAEGAEN
notes: also called MBP-tagged 14-3-3θ; source: E. coli BL21(DE3), purified (amylose resin, SEC)
B5: in assay [3], the binding result is on record as “binds”.

B6: Sites 2,3 peptide (pT340/pT360) (peptide)
peptide: Ac-DSYSN[pT]LPVRKSVTPKNSYATTENK[pT]LPRSSS-NH2
SMILES: CC(=O)N[C@@H](CC(=O)O)C(=O)N[C@@H](CO)C(=O)N[C@@H](Cc1ccc(O)cc1)C(=O)N[C@@H](CO)C(=O)N[C@@H](CC(N)=O)C(=O)N[C@H](C(=O)N[C@@H](CC(C)C)C(=O)N1CCC[C@H]1C(=O)N[C@H](C(=O)N[C@@H](CCCNC(=N)N)C(=O)N[C@@H](CCCCN)C(=O)N[C@@H](CO)C(=O)N[C@H](C(=O)N[C@H](C(=O)N1CCC[C@H]1C(=O)N[C@@H](CCCCN)C(=O)N[C@@H](CC(N)=O)C(=O)N[C@@H](CO)C(=O)N[C@@H](Cc1ccc(O)cc1)C(=O)N[C@@H](C)C(=O)N[C@H](C(=O)N[C@H](C(=O)N[C@@H](CCC(=O)O)C(=O)N[C@@H](CC(N)=O)C(=O)N[C@@H](CCCCN)C(=O)N[C@H](C(=O)N[C@@H](CC(C)C)C(=O)N1CCC[C@H]1C(=O)N[C@@H](CCCNC(=N)N)C(=O)N[C@@H](CO)C(=O)N[C@@H](CO)C(=O)N[C@@H](CO)C(N)=O)[C@@H](C)OP(=O)(O)O)[C@@H](C)O)[C@@H](C)O)[C@@H](C)O)C(C)C)C(C)C)[C@@H](C)OP(=O)(O)O
notes: IRSp53 stretch of 29-40 residues that holds T340 and T360; also called doubly-phosphorylated IRSp53 peptide Sites 2,3; source: synthetic peptide (Dr. Paul Leavis, Tufts University)
Take B6: in the assay with 14-3-3θ [1], the dissociation constant (Kd) (as a rule, the constant that tells how readily two partners part at equilibrium) was found to be 45 nM and the “stoichiometry N” value is ~0.5 peptide per 14-3-3θ subunit (one peptide per 14-3-3θ dimer).

B7: pIRSp53FS (natural protein, human (from the printed UniProt entry), UniProt Q9UQB8-4 1-521, looked up)
chain: MSLSRSEEMHRLTENVYKTIMEQFNPSLRNFIAMGKNYEKALAGVTYAAKGYFDALVKMGELASESQGSKELGDVLFQMAEVHRQIQNQLEEMLKSFHNELLTQLEQKVELDSRYLSAALKKYQTEQRSKGDALDKCQAELKKLRKKSQGSKNPQKYSDKELQYIDAISNKQGELENYVSDGYKTALTEERRRFCFLVEKQCAVAKNSAAYHSKGKELLAQKLPLWQQACADPSKIPERAVQLMQQVASNGATLPSALSASKSNLVISDPIPGAKPLPVPPELAPFVGRMSAQESTPIMNGVTGPDGEDYSPWADRKAAQPKSLSPPQSQSKLSDSYSNTLPVRKSVTPKNSYATTENKTLPRSSSMAAGLERNGRMRVKAIFSHAAGDNSTLLSFKEGDLITLLVPEARDGWHYGESEKTKMRGWFPFSYTRVLDSDGSDRLHMSLQQGKSSSTGNLLDKDDLAIPPPDYGAASRAFPAQTASGFKQRPYSVAVPAFSQGLDDYGARSMSSGSGTLVCTV
modifications: natively phosphorylated in HEK293T cells; fluorescein maleimide / rhodamine maleimide on C230 and C519
notes: IRSp53 (BAIAP2), isoform-4, UniProt Q9UQB8-4, full length, S519C; Expressed and purified as m4; also called IRSp53 FRET sensor; phosphorylated IRSp53 (mutant S519C)
Consider B7, for which the Kd with 2xFLAG-Eps8 amounted to 42 nM. As to Ac-QQGKSSSTGNLLD-NH2 (also: phosphoserine at S454, which serine of the chain is not given here) [Site 5 peptide (pS454)], in the assay with 14-3-3θ [1], the affinity, expressed as Kd, was 12000 nM and the “stoichiometry N” value was ~1 peptide per 14-3-3θ subunit (two peptides per 14-3-3θ dimer). As for AQPKSL[pS]PPQSQSKLSDSYSN[pT]LPVRKS [Sites 1,2 peptide (pS325/pT340)], the “stoichiometry N” value with 14-3-3θ [1] is ~1 peptide per 14-3-3θ subunit.
